In paper PMC6220978, “Induced conformational changes activate the peptidoglycan synthase PBP1B” (Molecular Microbiology, 2018):
Substitutions are numbered along the chain they refer to.

Key:
Assay in all cases: SPR; reducing conditions: 2 mM TCEP in the SPR running buffer, immobilised PBP1B versions incubated in it for 30 min before the assay; LpoB injected from 19.5 nM to 10 μM; apparent KD
Conditions in all cases: both partners purified
PBP1B R157A = target: T1, PBP1B R157A (E. coli, UniProt P02919 46-844, R157A)
T1 construct: PBP1B, E. coli, residues 46-844, made by mutagenesis of pDML924; source: E. coli BL21(DE3), purified (membrane extract, HisTrap, thrombin, HiTrap SP ion exchange)
T1 sequence (looked up): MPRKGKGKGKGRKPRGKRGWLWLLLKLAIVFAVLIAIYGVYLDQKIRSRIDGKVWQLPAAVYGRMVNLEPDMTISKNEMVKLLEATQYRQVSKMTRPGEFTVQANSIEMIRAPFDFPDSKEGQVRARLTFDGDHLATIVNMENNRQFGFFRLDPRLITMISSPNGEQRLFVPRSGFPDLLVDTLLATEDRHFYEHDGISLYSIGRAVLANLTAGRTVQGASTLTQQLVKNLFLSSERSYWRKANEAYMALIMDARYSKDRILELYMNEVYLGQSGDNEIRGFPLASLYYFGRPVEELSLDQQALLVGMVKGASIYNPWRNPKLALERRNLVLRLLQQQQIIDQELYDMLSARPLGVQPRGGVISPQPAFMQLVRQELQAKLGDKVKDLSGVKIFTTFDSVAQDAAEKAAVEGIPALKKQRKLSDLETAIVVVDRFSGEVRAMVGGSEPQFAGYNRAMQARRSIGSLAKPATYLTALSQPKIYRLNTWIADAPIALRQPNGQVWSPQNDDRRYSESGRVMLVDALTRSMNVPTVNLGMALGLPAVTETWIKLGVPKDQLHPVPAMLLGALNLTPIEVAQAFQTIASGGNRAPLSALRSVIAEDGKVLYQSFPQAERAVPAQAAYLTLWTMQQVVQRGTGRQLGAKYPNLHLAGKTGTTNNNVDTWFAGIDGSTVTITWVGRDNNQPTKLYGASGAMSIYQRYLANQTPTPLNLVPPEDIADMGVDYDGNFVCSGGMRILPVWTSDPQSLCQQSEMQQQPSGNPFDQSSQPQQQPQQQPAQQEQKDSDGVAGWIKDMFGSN

PBP1B P162C/I644C = target: T2, PBP1B P162C/I644C (E. coli, UniProt P02919 46-844, P162C | I644C)
T2 construct: PBP1B, E. coli, residues 46-844, made by mutagenesis of pDML924; Disulphide bridge between C162 and C644 (no free thiol groups detected); reduced in the SPR assay with 2 mM TCEP; source: E. coli BL21(DE3), purified (membrane extract, HisTrap, thrombin, HiTrap SP ion exchange)
T2 sequence (looked up): T1 sequence (looked up) with A112R, P117C, I599C

PBP1B D160C/K437C = target: T3, PBP1B D160C/K437C (E. coli, UniProt P02919 46-844, D160C | K437C)
T3 construct: PBP1B, E. coli, residues 46-844, made by mutagenesis of pDML924; Disulphide bridge between C160 and C437 (no free thiol groups detected); reduced in the SPR assay with 2 mM TCEP; source: E. coli BL21(DE3), purified (membrane extract, HisTrap, thrombin, HiTrap SP ion exchange)
T3 sequence (looked up): T1 sequence (looked up) with A112R, D115C, K392C

- Kd (PBP1B R157A): 0.357 µM
- Kd (PBP1B P162C/I644C): 0.182 µM
- Kd (PBP1B D160C/K437C): 2.04 µM
B1: LpoB (natural protein, E. coli)
chain: VGQREPAPVEEVKPAPEQPAEPQQPVPTVPSVPTIPQQPGPIEHEDQTAPPAPHIRHYDWNGAMQPMVSKMLGADGVTAGSVLLVDSVNNRTNGSLNAAEATETLRNALANNGKFTLVSAQQLSMAKQQLGLSPQDSLGTRSKAIGIARNVGAHYVLYSSASGNVNAPTLQMQLMLVQTGEIIWSGKGAVSQQ
notes: LpoB, E. coli; also called lipoprotein LpoB; source: E. coli BL21(DE3), purified (HisTrap, Superdex 200), as in Egan et al. 2014
